Measured values from paper PMC7402622 (Science (New York, N.y.), 2020).

B1: H014 humanized monoclonal antibody (IgG) (antibody, V domains shown)
VH: EVQLVQSGAEVKKPGATVKISCKVSGYSFSNYYIHWVKQAPGKSLEWIGYIDPFNGGTSDNLKFKGAATLTADTSTDTAYMELSSLRSEDTAVYYCARSEYDPYYVMDYWGQGTTVTVSS
VL: IVLTQSPFQSVSPKEKVTITCRASQSISSNLHWYQQKPDQSPKLLIKYASQSISGIPSRFSGSGSGTDFTLTINSLEAEDFGIYFCQQTNFWPYIFGQGTKLEIL
B2: H014 Fab fragment (Fab, V domains shown)
VH: B1 VH
VL: B1 VL

Tests used:
[1] = biological target: T1, stabilized SARS-CoV-2 S ectodomain trimer (SARS-CoV-2, Wuhan-Hu-1 (GenBank …, UniProt P0DTC2, stabilised)); assay: SPR
[2] = biological target: T1, stabilized SARS-CoV-2 S ectodomain …; assay: cryo-EM structure

Row | Binder | binding result [1] | binding result [2]
1 | B1 | binds | 
2 | B2 |  | binds
